Laboratory results from the supplement of paper PMC10126150.
± gives the standard deviation of the averaged measurements.

test system: ATP; test: switch fluorescence ratio, 500 uM ATP over buffer (Cy3 cluster intensity, sum of 5 cycles each) (fold (ratio)); higher = stronger signal-on switching upon ATP binding; sequences stand for … in TCGTCGGCAGCGTCAGATGTGTATAAGAGACAGTTTTTTTTTTTTTTTTTTTTTTTTT…TC; conditions: aptamer strand: ATP DNA aptamer (quencher-CACCTGGGGGAGTATTGCGGAGGAAGG + anchor), 100 nM annealed; ATP concentration: 500 uM
Procedure, shortened: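 Cy3-labelled switching-strand clusters on a modified Illumina MiSeq flow-cell were annealed to 100 nM quencher-labelled ATP aptamer, imaged in selection buffer, then imaged after 15 min with 500 uM ATP at 22 °C. Five buffer/ATP cycles ran, with NaOH stripping and re-annealing between them. The fluorescence ratio is summed target-cycle over summed buffer-cycle Cy3 intensity per cluster, averaged per switch-domain sequence. Clusters outside 100-1000 RFU were excluded.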
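Note: ATP exposure 15 min at 22 °C before imaging.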

Point of comparison: AGAGTTTGGG, switch fluorescence ratio 0.988 ± 0.0099. Against it:
- ATGGATTGTG — within error, 0.983 ± 0.011
- CCATATCGTT — within error, 0.997 ± 0.01
- CACATTTAGG — within error, 0.978 ± 0.032
- TTCGTTTTGA — within error, 1.02 ± 0.057
- GTTGGGAGGG — within error, 0.985 ± 0.012
- TACGCGTGGG — within error, 1.004 ± 0.0084
- TTAAAAATAG — within error, 0.976 ± 0.027
- GCCTATATTT — within error, 0.994 ± 0.017
- GGCCGCACGC — higher, 3.69 ± 0.059
- GTGGTTTTTG — within error, 0.968 ± 0.025
- GTACGGTTTT — within error, 0.994 ± 0.073
- GTTTTAAGCT — higher, 1.023 ± 0.0058
- GGCATTATAG — within error, 0.999 ± 0.0097
- TTATTGCGCT — within error, 0.994 ± 0.013
- TTGCGTATTT — within error, 0.993 ± 0.033
- AGATTTGAGC — within error, 0.972 ± 0.035
- TAATCATTGG — within error, 1.01 ± 0.065
- ATCTATCTTG — within error, 0.9777 ± 0.0012
- TTTCCTCAG — within error, 1.3 ± 0.4
- CGTAGGAATT — higher, 1.07 ± 0.015
- GTTACAAGAG — within error, 0.9955 ± 0.0077
- GCAATTTAGA — higher, 1.02 ± 0.016
- ATGGGAGAAA — higher, 1.01 ± 0.0045
- TTGGGTAGCT — within error, 0.996 ± 0.043
- GATACTGGGT — within error, 0.995 ± 0.046
- GATATTTAGT — within error, 0.995 ± 0.011
- TTTGGACGGG — within error, 0.995 ± 0.033
- AATTTTTTTC — within error, 0.989 ± 0.015
- GTGGGGGTAA — lower, 0.9692 ± 0.0039
- GTGACCCGGA — lower, 0.97057 ± 0.00025
- ACTTTTTTAT — within error, 1.01 ± 0.018
- TACTCGGGAA — higher, 3.05 ± 2
- CATTAGAGGG — the same, 0.988 ± 0.031
- GGGGATATGA — within error, 0.995 ± 0.049
- TCATGTATGG — within error, 0.977 ± 0.012
- TGACATTGTA — within error, 1.01 ± 0.072
- TTAAGGGAAG — within error, 1.02 ± 0.036
- TTGTGTTTTT — within error, 0.995 ± 0.023
- TATGATCTGT — within error, 0.979 ± 0.021
- TCTAGAGCGG — within error, 1.02 ± 0.029
- TTTATGTCTC — within error, 0.992 ± 0.029
- GACTGAGAGA — higher, 1.024 ± 0.0035
- GAGAGCAAAT — higher, 1.09 ± 0.048
- TAGGTGGGAT — higher, 1.05 ± 0.038
- GTTTAGGTTT — within error, 1 ± 0.019
- ATCGCAGCTC — higher, 1.62 ± 0.017
- GGTGGGGAGC — within error, 1 ± 0.021
- AATTGGTGCG — within error, 0.985 ± 0.035
- ATTATACTTC — higher, 1.04 ± 0.013
- ACTGGTTAGT — within error, 1 ± 0.045
- CGATTTTGGT — lower, 0.9633 ± 0.0038
- CGGGGAGCGT — within error, 1 ± 0.034
- TGACGTGTTG — within error, 1.02 ± 0.083
- GGGTCCATCT — within error, 1 ± 0.013
- TTTTGTTCAC — within error, 1.01 ± 0.017
- GGTAGCGGGG — higher, 1.02 ± 0.014
- GGTATGGGAT — higher, 1.022 ± 0.0059
- ACTTGGTAT — within error, 1 ± 0.07
- TGGGTAAGGC — within error, 0.961 ± 0.08
- TGAGGATATA — within error, 0.9887 ± 0.0059
- ATTCAGGGCT — within error, 1.01 ± 0.013
- AGTACGCAAG — higher, 1.12 ± 0.039
- CTTGGTTTCT — higher, 1.032 ± 0.0093
- GCGAGATCCG — higher, 1.01 ± 0.011
- GCTTGCAAAG — higher, 1.007 ± 0.0031
- ATATACGTTG — higher, 1.03 ± 0.011
- AAAGAGTGAT — higher, 1.022 ± 0.0062
- GTGGTTATCG — within error, 1.02 ± 0.043
- CACTAACCAT — higher, 1.09 ± 0.069
- TTACTCGACG — higher, 1.06 ± 0.022
- TACATCGTCC — higher, 1.05 ± 0.024
- CCTGAAGACA — within error, 1 ± 0.02
- GCGGGGGTGT — higher, 1.05 ± 0.026
- AAGCCAGCTC — within error, 1.02 ± 0.037
- GCTAATTTGC — within error, 0.98953 ± 0.00037
- ATGAGGAGTT — within error, 0.996 ± 0.025
- CCGCAGAGTG — higher, 3.98 ± 2.1
- TTAGGAAGGT — within error, 1 ± 0.021
- GGTAACTTTG — within error, 0.989 ± 0.031
- TCTTATCGTT — within error, 0.964 ± 0.019
- GGTCCAGTGA — within error, 1.02 ± 0.023
- GGGGGGGCGG — within error, 1 ± 0.024
- GCCGCATTTG — higher, 1.147 ± 0.011
- TTTTCAGTTG — within error, 1.002 ± 0.0029
- GAAGTCCGGT — within error, 0.955 ± 0.024
- CTTGATTTTT — within error, 1 ± 0.016
- GTGTTCAACG — within error, 0.994 ± 0.04
- GTTACTTGTA — within error, 0.978 ± 0.025
- GTTTGCTATT — within error, 0.992 ± 0.032
- CTGAGCGATT — higher, 1.41 ± 0.032
- GTATGCAGGG — within error, 0.989 ± 0.035
- TATATTAAAG — within error, 0.976 ± 0.015
- CAGTTGTAAA — lower, 0.9699 ± 0.0067
- TTCAATATGC — higher, 1.1 ± 0.033
- GAAAGTTAAG — higher, 1.015 ± 0.0049
- GATCGGAGGG — within error, 1.01 ± 0.027
- AAAGAGAGAA — within error, 0.9998 ± 0.0093
- CTCAATGTAT — within error, 0.989 ± 0.032
- TTACAGCTGA — within error, 1.01 ± 0.016
- AAAGGTACGT — within error, 0.987 ± 0.021
- AGCAATCGGT — higher, 1.6 ± 0.42
- TTGAAATTT — within error, 1.001 ± 0.003
- TGGACGTTGA — within error, 0.994 ± 0.033
- GGTGGCGGGG — within error, 0.987 ± 0.019
- TCGATGGCTT — higher, 1.05 ± 0.019
- GGGCATGATG — within error, 1.02 ± 0.055
- TGAATAGGGT — within error, 1.03 ± 0.073
- GAGATGTAGG — within error, 1 ± 0.014
- TCTAACGCTG — higher, 1.13 ± 0.056
- TTTGGGCCGT — within error, 0.971 ± 0.043
- TTTTGAACGA — within error, 1.01 ± 0.035
- GATGGCCGTG — within error, 0.978 ± 0.018
- GCAGTATGGG — within error, 1 ± 0.028
- ATATTGTTTT — higher, 1.02 ± 0.019
- GCAAGAACAG — higher, 1.04 ± 0.036
- CGGACGTGAC — higher, 2.79 ± 0.2
- ATTTTAGGCA — within error, 0.996 ± 0.039
- TAGGTCCTGG — within error, 0.9888 ± 0.0074
- GAAGTCTGGG — within error, 0.9767 ± 0.0021
- TAAGTGACCG — higher, 1.07 ± 0.018
- TAAGGGTTTC — within error, 1.02 ± 0.066
- TTTGATCAGC — within error, 0.983 ± 0.031
- CATGACTCCC — higher, 2.01 ± 0.13
- ATTTCACAAT — within error, 0.9798 ± 0.0028
- CTTCCGCTTG — higher, 1.58 ± 0.021
- AAGTTCGGG — higher, 1.035 ± 0.0057
- GAAAGGGTGG — within error, 0.9746 ± 0.0081
- CAAGGTATTG — within error, 0.987 ± 0.017
- CGGGAATTTC — higher, 1.04 ± 0.027
- AATGTGCAAA — within error, 1.01 ± 0.022
- GAATAAGATT — within error, 1.01 ± 0.061
- TGAGAGGTTT — within error, 0.9817 ± 0.0014
- AACTGAGTAG — within error, 1.01 ± 0.015
- TTTGAGCTTG — within error, 0.981 ± 0.017
- TGAGCGGATG — within error, 0.994 ± 0.036
- TTTTTCACTT — within error, 1 ± 0.036
- GTTTGGGGCA — within error, 0.994 ± 0.033
- GGGTTACGAT — within error, 0.994 ± 0.021
- GAAGAGGGGA — within error, 1.01 ± 0.013
- ATAGTGGGGC — higher, 1.056 ± 0.0054
- TTGGGGCGTT — within error, 0.993 ± 0.057
- AGGTGAGGTA — within error, 1 ± 0.019
- AGATAGGAG — within error, 0.989 ± 0.027
- CATCGGCTGA — within error, 0.992 ± 0.023
- CATTTATTCT — lower, 0.9615 ± 0.0021
- ATATCAAAAT — within error, 1.01 ± 0.013
- GGGGAAGGG — within error, 1.12 ± 0.24
- TAAGCAGGGC — higher, 1.068 ± 0.0043
- TTAATTGGGA — within error, 0.9897 ± 0.0028
- AAATTAGGAT — within error, 0.997 ± 0.039
- TAGGGTTTTT — within error, 1.03 ± 0.038
- CGTGCAAAAC — within error, 1.82 ± 0.88
- GGGCTGGCTG — within error, 0.998 ± 0.062
- GGATGGGGGG — within error, 0.986 ± 0.016
- GGAAGCGACA — the same, 0.988 ± 0.037
- AAATTGCGAC — higher, 1.03 ± 0.026
